Assays:
HLA-A*03:01 [1] = experiment: IEDB peptide-MHC binding, purified MHC/direct/fluorescence; filed as Kd, often an IC50 or EC50 that approximates it; ≥ and ≤ were set here for values at or beyond the usual limits of such assays
HLA-A*02:02 = experiment: IEDB peptide-MHC binding, purified MHC/competitive/radioactivity; filed as Kd, often an IC50 or EC50 that approximates it; ≥ and ≤ were set here for values at or beyond the usual limits of such assays
HLA-A*02:06 = experiment: as above
HLA-A*02:03 = experiment: as above
HLA-A*11:01 = experiment: as above
HLA-A*31:01 = experiment: as above
HLA-A*03:01 [2] = experiment: as above
HLA-A*68:01 = experiment: as above
HLA-A*33:01 = experiment: as above
HLA-A*01:01 = experiment: as above
[3] = source organism: Vaccinia virus WR
[4] = source organism: SARS coronavirus Tor2
[5] = source organism: Dengue virus 1 Brazil/97-11/1997
[6] = source organism: Lymphocytic choriomeningitis virus (strain Pasteur)
[7] = source organism: Dengue virus 4 Philippines/H241/1956
[8] = source organism: Mammarenavirus guanaritoense
[9] = source organism: Vaccinia virus Copenhagen

With RTWFHGSLY the Kd (HLA-A*03:01 [1]; source organism: Cryptosporidium parvum) was 13.1 nM.
Sequence RVTDMAPFK has a Kd (HLA-A*03:01 [1]; source organism: Listeria monocytogenes) of 404 nM.
SIGFEARIV gave a Kd (HLA-A*02:02; [3]) of 10100 nM, a Kd (HLA-A*02:06; [3]) of 1310 nM and a Kd (HLA-A*02:03; [3]) of 575 nM.
SIISLFYTFA showed a Kd (HLA-A*02:02; [3]) of 111 nM, a Kd (HLA-A*02:06; [3]) of 93.6 nM and a Kd (HLA-A*02:03; [3]) of 28.1 nM.
Sequence SMKGENVFI has a Kd (HLA-A*02:02; [3]) of 5.48 nM, a Kd (HLA-A*02:06; [3]) of 13700 nM and a Kd (HLA-A*02:03; [3]) of 18.9 nM.
STAEQLSKY showed a Kd (HLA-A*11:01; [3]) of 133 nM, a Kd (HLA-A*31:01; [3]) of at least 77900 nM and a Kd (HLA-A*03:01 [2]; [3]) of 2430 nM. For the same sequence, the Kd (HLA-A*68:01; [3]) was 54.9 nM and the Kd (HLA-A*33:01; [3]) was at least 77700 nM.
STSPTRTWKV was tested, and the Kd (HLA-A*02:02; [3]) was 397 nM, the Kd (HLA-A*02:06; [3]) was 504 nM and the Kd (HLA-A*02:03; [3]) was 717 nM.
TIDNPTKYIR gave a Kd (HLA-A*11:01; [3]) of 2600 nM, a Kd (HLA-A*31:01; [3]) of 115 nM and a Kd (HLA-A*03:01 [2]; [3]) of 15700 nM. The Kd (HLA-A*68:01; [3]) was 158 nM and the Kd (HLA-A*33:01; [3]) was 4260 nM.
With TINVNSLALK the Kd (HLA-A*11:01; [3]) was 18.7 nM, the Kd (HLA-A*31:01; [3]) was 1120 nM and the Kd (HLA-A*03:01 [2]; [3]) was 17.3 nM. The Kd (HLA-A*68:01; [3]) was 6.2 nM and the Kd (HLA-A*33:01; [3]) was 4000 nM.
For TLLIKTLSPA, the Kd (HLA-A*02:02; [3]) was 1.05 nM, the Kd (HLA-A*02:06; [3]) was 0.728 nM and the Kd (HLA-A*02:03; [3]) was 1.17 nM.
Sequence TLLNETAKVI has a Kd (HLA-A*02:02; [3]) of 2860 nM, a Kd (HLA-A*02:06; [3]) of 8550 nM and a Kd (HLA-A*02:03; [3]) of 2130 nM.
TLNEDLLEI showed a Kd (HLA-A*02:02; [4]) of 1.45 nM, a Kd (HLA-A*02:06; [4]) of 56.3 nM and a Kd (HLA-A*02:03; [4]) of 2.24 nM.
TLYAVATTVI showed a Kd (HLA-A*02:03; [5]) of 195 nM.
For TMPNESRVK, the Kd (HLA-A*11:01; [3]) was 930 nM, the Kd (HLA-A*31:01; [3]) was at least 61600 nM and the Kd (HLA-A*03:01 [2]; [3]) was 17500 nM. The Kd (HLA-A*68:01; [3]) was 2040 nM and the Kd (HLA-A*33:01; [3]) was at least 77700 nM.
Work on TQLYLGGMSY yielded a Kd (HLA-A*11:01; [4]) of 766 nM, a Kd (HLA-A*31:01; [4]) of 5840 nM and a Kd (HLA-A*03:01 [2]; [4]) of 36.5 nM. It also gave a Kd (HLA-A*68:01; [4]) of 1350 nM and a Kd (HLA-A*33:01; [4]) of at least 40000 nM.
Work on TSITQKGIIF yielded a Kd (HLA-A*01:01; [5]) of 7350 nM.
TVENNIDFLK was tested, and the Kd (HLA-A*11:01; [3]) was 69.9 nM, the Kd (HLA-A*31:01; [3]) was 8650 nM and the Kd (HLA-A*03:01 [2]; [3]) was 2650 nM. It also gave a Kd (HLA-A*68:01; [3]) of 19.7 nM and a Kd (HLA-A*33:01; [3]) of 17900 nM.
Sequence TYLGPLNCK has a Kd (HLA-A*11:01; [6]) of 47.8 nM, a Kd (HLA-A*31:01; [6]) of 5220 nM and a Kd (HLA-A*03:01 [2]; [6]) of 481 nM. The Kd (HLA-A*68:01; [6]) was 699 nM and the Kd (HLA-A*33:01; [6]) was 834 nM.
VAEHRFENMK gave a Kd (HLA-A*11:01; [3]) of 788 nM, a Kd (HLA-A*31:01; [3]) of at least 34700 nM and a Kd (HLA-A*03:01 [2]; [3]) of 4870 nM. For the same sequence, the Kd (HLA-A*68:01; [3]) was 5730 nM and the Kd (HLA-A*33:01; [3]) was at least 70000 nM.
With VIEYAKSISK the Kd (HLA-A*11:01; [3]) was 165 nM, the Kd (HLA-A*31:01; [3]) was 10800 nM and the Kd (HLA-A*03:01 [2]; [3]) was 129 nM. It also gave a Kd (HLA-A*68:01; [3]) of 2720 nM and a Kd (HLA-A*33:01; [3]) of 17500 nM.
VIPDELIDVL gave a Kd (HLA-A*02:02; [3]) of 2490 nM, a Kd (HLA-A*02:06; [3]) of 298 nM and a Kd (HLA-A*02:03; [3]) of 4590 nM.
VIRNEVNDT gave a Kd (HLA-A*02:02; [3]) of 19900 nM, a Kd (HLA-A*02:06; [3]) of at least 77100 nM and a Kd (HLA-A*02:03; [3]) of 820 nM.
In the case of VLEENMDVEI, the Kd (HLA-A*01:01; [5]) is reported as at least 46500 nM.
With VLKAMHDKK the Kd (HLA-A*11:01; [3]) was 364 nM, the Kd (HLA-A*31:01; [3]) was 126 nM and the Kd (HLA-A*03:01 [2]; [3]) was 263 nM. It also gave a Kd (HLA-A*68:01; [3]) of 3420 nM and a Kd (HLA-A*33:01; [3]) of 977 nM.
VLTILYYGA was tested, and the Kd (HLA-A*02:02; [3]) was 1.32 nM, the Kd (HLA-A*02:06; [3]) was 6240 nM and the Kd (HLA-A*02:03; [3]) was 17.5 nM.
With VQIENLEYTV the Kd (HLA-A*02:06; [7]) was 4.4 nM.
VSTGESSILR showed a Kd (HLA-A*11:01; [3]) of 204 nM, a Kd (HLA-A*31:01; [3]) of 1390 nM and a Kd (HLA-A*03:01 [2]; [3]) of at least 24900 nM. The Kd (HLA-A*68:01; [3]) was 119 nM and the Kd (HLA-A*33:01; [3]) was 3230 nM.
VTPEYIKDLK gave a Kd (HLA-A*11:01; [3]) of 522 nM, a Kd (HLA-A*31:01; [3]) of 15100 nM and a Kd (HLA-A*03:01 [2]; [3]) of 14300 nM. It also gave a Kd (HLA-A*68:01; [3]) of 374 nM and a Kd (HLA-A*33:01; [3]) of at least 70000 nM.
VTSSGVIYK was tested, and the Kd (HLA-A*11:01; source organism: Variola virus) was at least 69700 nM, the Kd (HLA-A*31:01; source organism: Variola virus) was at least 70000 nM and the Kd (HLA-A*03:01 [2]; source organism: Variola virus) was at least 70000 nM. The Kd (HLA-A*68:01; source organism: Variola virus) was at least 70100 nM and the Kd (HLA-A*33:01; source organism: Variola virus) was at least 70000 nM.
Sequence VTTWEDVPYL has a Kd (HLA-A*01:01; source organism: Dengue virus 3 Singapore/8120/1995) of 10200 nM.
VVKDDPDHY showed a Kd (HLA-A*11:01; [3]) of 1800 nM, a Kd (HLA-A*31:01; [3]) of at least 77900 nM and a Kd (HLA-A*03:01 [2]; [3]) of at least 78000 nM. For the same sequence, the Kd (HLA-A*68:01; [3]) was 8050 nM and the Kd (HLA-A*33:01; [3]) was at least 77700 nM.
Work on VVYRGTTTYK yielded a Kd (HLA-A*11:01; [4]) of 15.8 nM, a Kd (HLA-A*31:01; [4]) of 260 nM and a Kd (HLA-A*03:01 [2]; [4]) of 5.74 nM. The Kd (HLA-A*68:01; [4]) was 11.6 nM and the Kd (HLA-A*33:01; [4]) was 6920 nM.
Sequence WLYYNQDVQR has a Kd (HLA-A*11:01; [3]) of 7910 nM, a Kd (HLA-A*31:01; [3]) of 222 nM and a Kd (HLA-A*03:01 [2]; [3]) of 1840 nM. It also gave a Kd (HLA-A*68:01; [3]) of 8.21 nM and a Kd (HLA-A*33:01; [3]) of 161 nM.
For WQIEKASLI, the Kd (HLA-A*02:06; [7]) was 43.5 nM.
Sequence WTTLLSLTF has a Kd (HLA-A*01:01; [5]) of 11200 nM.
With YCLDFLFDV the Kd (HLA-A*02:02; [8]) was 17300 nM, the Kd (HLA-A*02:06; [8]) was at least 77000 nM and the Kd (HLA-A*02:03; [8]) was at least 78100 nM.
YLRLYIILA showed a Kd (HLA-A*02:02; [9]) of 8.26 nM, a Kd (HLA-A*02:06; [9]) of 4180 nM and a Kd (HLA-A*02:03; [9]) of 52.4 nM.
Work on YMSNLFDIPL yielded a Kd (HLA-A*02:02; [3]) of 19.2 nM, a Kd (HLA-A*02:06; [3]) of 127 nM and a Kd (HLA-A*02:03; [3]) of 10.2 nM.
With YTISSESLV the Kd (HLA-A*02:02; [3]) was 522 nM, the Kd (HLA-A*02:06; [3]) was 53.6 nM and the Kd (HLA-A*02:03; [3]) was 37.6 nM.
With YTVEFDRDKV the Kd (HLA-A*02:02; [3]) was 82.6 nM, the Kd (HLA-A*02:06; [3]) was 22 nM and the Kd (HLA-A*02:03; [3]) was 154 nM.
In the case of YVLGIFLRKL, the Kd (HLA-A*02:06; [7]) is reported as 32.6 nM.
